# B1: Transcription-repair-coupling factor (Escherichia coli (strain K12)), P30958 (parent)
# chain: MPEQYRYTLPVKAGEQRLLGELTGAACATLVAEIAERHAGPVVLIAPDMQNALRLHDEISQFTDQMVMNLADWETLPYDSFSPHQDIISSRLSTLYQLPTMQRGVLIVPVNTLMQRVCPHSFLHGHALVMKKGQRLSRDALRTQLDSAGYRHVDQVMEHGEYATRGALLDLFPMGSELPYRLDFFDDEIDSLRVFDVDSQRTLEEVEAINLLPAHEFPTDKAAIELFRSQWRDTFEVKRDPEHIYQQVSKGTLPAGIEYWQPLFFSEPLPPLFSYFPANTLLVNTGDLETSAERFQADTLARFENRGVDPMRPLLPPQSLWLRVDELFSELKNWPRVQLKTEHLPTKAANANLGFQKLPDLAVQAQQKAPLDALRKFLETFDGPVVFSVESEGRREALGELLARIKIAPQRIMRLDEASDRGRYLMIGAAEHGFVDTVRNLALICESDLLGERVARRRQDSRRTINPDTLIRNLAELHIGQPVVHLEHGVGRYAGMTTLEAGGITGEYLMLTYANDAKLYVPVSSLHLISRYAGGAEENAPLHKLGGDAWSRARQKAAEKVRDVAAELLDIYAQRAAKEGFAFKHDREQYQLFCDSFPFETTPDQAQAINAVLSDMCQPLAMDRLVCGDVGFGKTEVAMRAAFLAVDNHKQVAVLVPTTLLAQQHYDNFRDRFANWPVRIEMISRFRSAKEQTQILAEVAEGKIDILIGTHKLLQSDVKFKDLGLLIVDEEHRFGVRHKERIKAMRANVDILTLTATPIPRTLNMAMSGMRDLSIIATPPARRLAVKTFVREYDSMVVREAILREILRGGQVYYLYNDVENIQKAAERLAELVPEARIAIGHGQMRERELERVMNDFHHQRFNVLVCTTIIETGIDIPTANTIIIERADHFGLAQLHQLRGRVGRSHHQAYAWLLTPHPKAMTTDAQKRLEAIASLEDLGAGFALATHDLEIRGAGELLGEEQSGSMETIGFSLYMELLENAVDALKAGREPSLEDLTSQQTEVELRMPSLLPDDFIPDVNTRLSFYKRIASAKTENELEEIKVELIDRFGLLPDPARTLLDIARLRQQAQKLGIRKLEGNEKGGVIEFAEKNHVNPAWLIGLLQKQPQHYRLDGPTRLKFIQDLSERKTRIEWVRQFMRELEENAIA
# Variants of: B1
# Conditions: with rpob_ecoli rpoB
row,Variant,effect of a mutation on the interaction
1,L499R,decreasing interaction
